The values below come from the supplement of paper PMC9170038.

The data set has as its system MS2 coat protein. The data set can be described thus: apparent KD of MS2 coat protein; designed switch direction (-1 OFF switch, 1 ON switch): -1; higher = weaker reporter binding. Summed up:
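Designed RNA switches sharing common flanks were transcribed on Illumina chips by stalled E. coli RNA polymerase. They were titrated with SNAP-549-labelled MS2 coat protein, from 0.7 or 1.5 nM doubling to 3 µM, in Tris-HCl pH 7.5 buffer with KCl, MgCl2, BSA, DTT, tRNA and Tween-20. Titrations ran without input, with 200 uM small-molecule ligand, or with an oligonucleotide input. The apparent KD of each design is the median over its clusters, after curve-fitting of normalised cluster fluorescence.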

The mark [1] stands for this setting: Eterna round: R95, input ligand: microRNA oligo, concentration not stated.
Setting [2] is: input ligand: microRNA oligo, concentration not stated.

Turning to “UCGGCGCGAGGAUAUACGGUUGCUUUUUAGGGUCGUGGCGUACAUGAGGAUCACCCAUGUAGAAGGCGCGCCGC [Apr-15 SS2-30] (puzzle: Exclusion 2)”, under setting [1], the “apparent KD of MS2 coat protein” value came to 13.8 nM.
For “UCGGCGCGAGGAUAUACGUUUGCGCGUUUUCGUUUGCGCGUACAUGAGGAUCACCCAUGUAGAAGGCGCGCCGC [Apr-15 SS2-14] (puzzle: Exclusion 2)”, the “apparent KD of MS2 coat protein” value under setting [1] was determined as 13.2 nM.
“UCGGCGCGAGGAUAUGCGGUUCCUGCUUCGGGCCGGAGCGUACAUGAGGAUCACCCAUGUAGAAGGCGCGCCGC [Apr-15 SS2-38] (puzzle: Exclusion 2)”: under setting [1], the “apparent KD of MS2 coat protein” value was determined as 12.1 nM.
For “UCUAUUUUGCGAGGAUAUCGACCAUUCCUCUUUACAUGAGGAUCACCCAUGUUCUUUUUCUACAACGAGAAGGCGCUCUAAGUU [JR_ExcNG2_Sub061] (Eterna round: R96, puzzle: Exclusion NG 2)”, the “apparent KD of MS2 coat protein” value is, setting by setting: (input ligand: FMN 200 uM) 71.9 nM; under setting [2], 65 nM; (input ligand: none) 59.1 nM.
As for “UCUCCCUGGCAAGGAUAUCCUGUGCGGUUCCGGCUCGUGUCUGUUACAUGAGGAUCACCCAUGUGGGAGAAGGUGCCUGUGGCU [Design 92] (Eterna round: R96, puzzle: Exclusion NG 2)”, the “apparent KD of MS2 coat protein” value by setting is: (input ligand: FMN 200 uM) 346 nM; under setting [2], 93.7 nM; (input ligand: none) 143 nM.
In the case of “UCUCGCGGGCAAGGAUAUCCCACGCUGUUCUGGCCCGUGUCUGUUACAUGAGGAUCACCCAUGUGGGAGAAGGUGCACCAGGGC [Design 43] (Eterna round: R96, puzzle: Exclusion NG 2)”, the “apparent KD of MS2 coat protein” value by setting is: (input ligand: FMN 200 uM) 30.9 nM; under setting [2], 16.8 nM; (input ligand: none) 29.4 nM.
For “UCUCGGUAAGGAUAUGCGCCGGGAUGAAGAUCCCGAAGCAUGCAGAAGGUACAUGAGGAUCACCCAUGUCUGUU [Eternabot (L1) Solution 76] (Eterna round: R97, puzzle: Exclusion 4)”, the “apparent KD of MS2 coat protein” value turned out to be 47.2 nM (input ligand: FMN 200 uM) and 20.5 nM (input ligand: none).
In the case of “UCUCUUGGGCAAGGAUAUCCUGCGCGGUUCCGGUUCGUGUCUGUCACAUGAGGAUCACCCAUGUGGGAGAAGGUGCCUGCGGUG [Design 75] (Eterna round: R96, puzzle: Exclusion NG 2)”, the “apparent KD of MS2 coat protein” value runs as follows: (input ligand: FMN 200 uM) 32.5 nM; under setting [2], 15.8 nM; (input ligand: none) 17.3 nM.
“UCUGGAGCAGGAUAUAUAUGACGUGCUUCGGCACGAAGGUCACAUGAGGAUCACCCAUGUAGAAGGGCUCCAGA [E2/9-D2] (Eterna round: R97, puzzle: Exclusion 2)”: the “apparent KD of MS2 coat protein” value was 344 nM (input ligand: FMN 200 uM) and 43.6 nM (input ligand: none).
For “UCUUAUCUAUAGGAUAUAGGAGCAGAAUUGCGAUUAGAAGGAUGGACAUGAGGAUCACCCAUGUGCAUGGGCUU [EX6 B.6] (Eterna round: R97, puzzle: Exclusion 6)”, the “apparent KD of MS2 coat protein” value worked out at 17.9 nM (input ligand: FMN 200 uM) and 30.6 nM (input ligand: none).
Turning to “UCUUUGUUUGUGAGGAUAUCGGUGGAAUGGAUUGUCGAGAAGGCACAUGAGGAUCACCCAUGUGUGGGACAGCA [JR_BMEx4_Sub026] (Eterna round: R97, puzzle: Brourd's mod of Exclusion 4)”, the “apparent KD of MS2 coat protein” value by setting is: (input ligand: FMN 200 uM) 24.3 nM; (input ligand: none) 22.3 nM.
As for “UGAAGUAGAGGAUAUACGUGGAAAUAGAUUCAUGUAAAACUACAUGAGGAUCACCCAUGUAGAAGGCUAUAGAU [JR_Ex2_Sub072] (Eterna round: R97, puzzle: Exclusion 2)”, the “apparent KD of MS2 coat protein” value (input ligand: FMN 200 uM) was found to be 28.4 nM and the “apparent KD of MS2 coat protein” value (input ligand: none) was found to be 49 nM.
Consider “UGAGCUUACGCAGGAUAUGAGGAUCACCCAUAGAAGGAUAUCGAAAGAGAAGGUCUGAGGAUUACCCAGAAGGGCGUGGGCUCU [pwkr exNG2 2xF5 2xFMN.11] (Eterna round: R96, puzzle: Exclusion NG 2)”, for which the “apparent KD of MS2 coat protein” value runs as follows: (input ligand: FMN 200 uM) 1290 nM; under setting [2], 125 nM; (input ligand: none) 131 nM.
Turning to “UGAGCUUCAGGAUAUAUGUGGCGACCGUGAGGUCGAAGGUUACAUGAGGAUCACCCAUGUAGAAGGGAAGUUCU [Mat - Exclusion 2 - JL Mod - D19] (Eterna round: R97, puzzle: Exclusion 2)”, the “apparent KD of MS2 coat protein” value (input ligand: FMN 200 uM) turned out to be 181 nM and the “apparent KD of MS2 coat protein” value (input ligand: none) turned out to be 62.2 nM.
Regarding “UGAGCUUGUGUGAGGAUAUUUCGAGUGAAAGCUUGAGAGAAGGCACAUGAGGAUCACCCAUGUAAGCGAGUUCG [-26.1, -24 kcal, A 28%, 1bis-1] (Eterna round: R97, puzzle: Brourd's mod of Exclusion 4)”, the “apparent KD of MS2 coat protein” value (input ligand: FMN 200 uM) turned out to be 84.2 nM and the “apparent KD of MS2 coat protein” value (input ligand: none) is 86.8 nM.
For “UGAGUGCUGCGAGGAUAUACAUGAGGAUCACCCAUGUGGAUGUCUGAGGCAAAGCCUCAGACAAUGUAGAAGGCGCAGUACUCU [Mat - Exclusion NG 2 - Mod of JL - D55] (Eterna round: R96, puzzle: Exclusion NG 2)”, the “apparent KD of MS2 coat protein” value was found to be 96.1 nM (input ligand: FMN 200 uM), 16.6 nM under setting [2] and 25.2 nM (input ligand: none).
The like results for “UGAGUGCUGCGAGGAUAUACAUGAGGAUCACCCAUGUGGUCCUGUGAGGCAAAGCCUCACAGGAUGUAGAAGGCGCAGUACUCU [Mat - Exclusion NG 2 - Mod of JL - D45] (Eterna round: R96, puzzle: Exclusion NG 2)” were, in that order, 95.2 nM, 13.7 nM and 22.5 nM.
As to “UGAGUGCUGCGAGGAUAUACAUGAGGAUCACCCAUGUUUACCUGUGAGGCUUUGCCUCACAGGUUGUAGAAGGCGCAGUACUCU [JL ENG2 1.15] (Eterna round: R96, puzzle: Exclusion NG 2)”, the “apparent KD of MS2 coat protein” value is, setting by setting: (input ligand: FMN 200 uM) 10.2 nM; under setting [2], 9.11 nM; (input ligand: none) 12.4 nM.
Regarding “UGAUCACAUGAGGAUCACCCAUGUCAGGAUAUCGUCACUGGAGCUGCGGCUCCAGUGACGAGAAGGGACAUAAU [E1/3-A3] (Eterna round: R97, puzzle: Exclusion 1)”, the “apparent KD of MS2 coat protein” value by setting is: (input ligand: FMN 200 uM) 50.8 nM; (input ligand: none) 242 nM.
Consider “UGAUCAGACCGAGGAUAUACAUGUAGGACGCACGUGAGUGCGUCCAGUACAUGAGGAUCACCCAUGUAGAAGGCGGUCUGAUCU [JL ENG2 1.95] (Eterna round: R96, puzzle: Exclusion NG 2)”, for which the “apparent KD of MS2 coat protein” value worked out at 309 nM (input ligand: FMN 200 uM), 78.2 nM under setting [2] and 76.1 nM (input ligand: none).
Consider “UGAUCUAGGCGAGGAUAUACAUGAGGAUCACCCAUGUAAGCGUGACAUGGAAACAUGUCACGUAUGUAGAAGGCGCCUAGAUCU [MOD ENG2 3.54 by JL] (Eterna round: R96, puzzle: Exclusion NG 2)”, for which the “apparent KD of MS2 coat protein” value is, setting by setting: under setting [2], 8.6 nM; (input ligand: none) 13.3 nM.
For the sequence “UGAUUGUUUAACAGAUUAUACAUGAGGAUCACCCAUGUAGGUCCUACGUGCACAUUAUGCAGCUCGUCUUAUUCCCA [Sensor-V1 #72] (Eterna round: R97, puzzle: Sensor, turn-off variant 1)”, the “apparent KD of MS2 coat protein” value came out at 35.5 nM (input ligand: FMN 200 uM) and 37.3 nM (input ligand: none).
Consider “UGCAGACGAGGAUAUAAAUUUGAUAACAUGAGGAUCACCCAUGUGAUCGAUAGAUCAAAUUUAGAAGGCGUCUGCU [E5/7-A3] (Eterna round: R97, puzzle: Exclusion 5)”, for which the “apparent KD of MS2 coat protein” value was determined as 541 nM (input ligand: FMN 200 uM) and 519 nM (input ligand: none).
